According to patent US6344436B1, “Lipophilic peptides for macromolecule delivery” (Baylor College of Medicine, priority 1996, dated 2002):
Ends that are not written are not given here. * marks the point of attachment. N,N‑distearylglycyl = CCCCCCCCCCCCCCCCCCN(CCCCCCCCCCCCCCCCCC)CC(=O)*

Tests used:
[1] = Particle size of peptide-macromolecule complex after enmeshment and condensation; assay type: physicochemical; conditions: for particle size: peptide added to DNA in the absence of condensing peptide, CHAPS micelles diluted below cmc
Experimental: Subsequently, the nucleic acid becomes coated with lipophilic peptide and enmeshed; forming a condensed nucleic acid/lipophilic peptide complex while CHAPS detergent monomers can be dialyzed out of the resulting mixture (FIGURE EIGHT).
The degree of condensation of the nucleic acid given the treatment of example two is shown as FIGURE NINE. When distearyl-glycyl-apoE-3^129-169 was added to DNA previously condensed with K8, the particle size increased only ˜20%. The addition of JTS-1 increased the particle size another 40%. By contrast, addition of distearyl-glycyl-apoE-3^129-169 to DNA in the absence of condensing peptide gave a smaller particle, about 60 nm. Condensation and enmeshment with the distearyl-glycyl-apoE-3^129-169Q142, the mutant peptide, also gave a small, 60 nm monodisperse particle population. When distearyl-glycyl-apoE-3^129-169 in 10 mM CHAPS was diluted without DNA being present, the resulting vesicles were ˜450 nm in diameter. […] Free DNA in the control remained at the top of the gradient, while the enmeshed-condensed complex was found at the bottom of the centrifugation tube.

293 epithelial cells = test: Transfection of 293 epithelial cells grown in lovastatin to up-regulate LDL receptors; assay type: cell-based; conditions: for transfection ability of peptide-macromolecule complexes (FIG. 10): comparison between complexes
Experimental: The ability of the formulations of example three to transfect cells was tested in 293 epithelial cells grown in 1 μg mL^−1 lovastatin overnight to up-regulate LDL receptors. […] As expected from the reduced binding of the mutant peptide to the LDL receptor, expression by mutant peptide complexes was about 5% of that observed with the wild-type apoE peptide complexes. We conclude that the diacyl-peptide functions as a condensing agent, an encapsulation agent, a targeting agent and a lytic agent. Apart from the well defined receptor ligand domain, the sequence regions that contain the other functions remain to be elucidated.

LDL receptor = target: T1, LDL receptor (Homo sapiens, UniProt P01130); test: Cytosis and degradation of labeled LDL complexed with lipophilic peptide (FIG. 4); assay type: cell-based
T1 construct: endogenous in cells
T1 sequence (P01130 22-860, species assumed): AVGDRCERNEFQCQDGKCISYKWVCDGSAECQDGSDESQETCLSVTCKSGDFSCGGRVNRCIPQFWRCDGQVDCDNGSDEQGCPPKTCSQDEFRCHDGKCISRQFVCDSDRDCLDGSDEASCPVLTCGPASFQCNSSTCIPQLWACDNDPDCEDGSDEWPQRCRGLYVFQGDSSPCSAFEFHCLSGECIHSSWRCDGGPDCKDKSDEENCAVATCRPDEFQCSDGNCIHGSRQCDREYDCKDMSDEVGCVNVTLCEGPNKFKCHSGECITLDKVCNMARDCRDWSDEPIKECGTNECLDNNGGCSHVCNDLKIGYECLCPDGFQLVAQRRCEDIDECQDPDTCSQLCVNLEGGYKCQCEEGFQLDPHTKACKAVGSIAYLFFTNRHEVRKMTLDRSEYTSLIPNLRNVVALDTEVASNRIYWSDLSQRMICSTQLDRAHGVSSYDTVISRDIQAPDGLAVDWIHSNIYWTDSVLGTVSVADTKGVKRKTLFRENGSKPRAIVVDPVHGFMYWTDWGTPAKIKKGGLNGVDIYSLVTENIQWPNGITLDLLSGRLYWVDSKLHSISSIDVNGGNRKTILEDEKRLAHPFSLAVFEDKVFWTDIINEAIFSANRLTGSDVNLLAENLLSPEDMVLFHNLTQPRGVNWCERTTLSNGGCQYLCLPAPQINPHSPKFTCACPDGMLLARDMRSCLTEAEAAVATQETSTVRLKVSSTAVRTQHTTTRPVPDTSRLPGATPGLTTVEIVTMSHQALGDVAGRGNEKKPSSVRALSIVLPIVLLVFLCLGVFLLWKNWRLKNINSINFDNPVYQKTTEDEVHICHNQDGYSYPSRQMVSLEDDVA

Row | Substance | further increase in particle size ([1]; JTS-1 added to K8-condensed DNA plus distearyl-glycyl-apoE-3^129-169) | necessity of component for efficient gene transfer (293 epithelial cells; 293 epithelial cells (FIGURE TENc)) | comparative size of peptide complexes ([1]; diameter after condensation of DNA (FIG. 9)) | particle size [1] | increase in particle size ([1]; peptide added to DNA previously condensed with K8) | diameter of resulting vesicles ([1]; peptide in 10 mM CHAPS diluted without DNA being present) | transfection ability of peptide-macromolecule complexes (FIG. 10) (293 epithelial cells) | cytosis and degradation of labeled LDL complexed with peptide (FIG. 4) (LDL receptor) | expression relative to wild-type apoE peptide complexes (293 epithelial cells; 293 epithelial cells, 1 μg mL^−1 lovastatin overnight)
1 | GLFEALLELLESLWELLLEA [JTS-1, reference compound] | 40% | Neither the galtoselated K8 or JTS-1 were necessary | – | – | – | – | – | – | –
2 | distearyl-glycyl-apoE-3^129-169 ({N,N‑distearylglycyl}-STEELRVRLASHLRKLRKRLLRDADDLQKRLAVYQAGAREG) | – | – | greatest reduction in diameter | about 60 nm | ~20% | ~450 nm | No significant transfection difference | cytosed and subsequently degraded | –
3 | distearyl-glycyl-apoE-3^129-169(Q142) | – | – | – | 60 nm | – | – | significantly less transfection | significantly less cytosis and degradation | about 5%
